Source: PMC5906670, “Structural basis of epilepsy-related ligand–receptor complex LGI1–ADAM22” (Nature Communications, 2018)

B1: LGI1 (wild type, pull-down with ADAM22/23 ECD-FLAG) [human] / ADAM22 ECD-FLAG [human] (parent complex)
chain 1: KKPAKPKCPAVCTCTKDNALCENARSIPRTVPPDVISLSFVRSGFTEISEGSFLFTPSLQLLLFTSNSFDVISDDAFIGLPHLEYLFIENNNIKSISRHTFRGLKSLIHLSLANNNLQTLPKDIFKGLDSLTNVDLRGNSFNCDCKLKWLVEWLGHTNATVEDIYCEGPPEYKKRKINSLSSKDFDCIITEFAKSQDLPYQSLSIDTFSYLNDEYVVIAQPFTGKCIFLEWDHVEKTFRNYDNITGTSTVVCKPIVIETQLYVIVAQLFGGSHIYKRDSFANKFIKIQDIEILKIRKPNDIETFKIENNWYFVVADSSKAGFTTIYKWNGNGFYSHQSLHAWYRDTDVEYLEIVRTPQTLRTPHLILSSSSQRPVIYQWNKATQLFTNQTDIPNMEDVYAVKHFSVKGDVYICLTRFIGDSKVMKWGGSSFQDIQRMPSRGSMVFQPLQINNYQYAILGSDYSFTQVYNWDAEKAKFVKFQELNVQAPRSFTHVSINKRNFLFASSFKGNTQIYKHVIVDLSA
chain 2: SKRQLRRYPRNVEEETKYIELMIVNDHLMFKKHRLSVVHTNTYAKSVVNMADLIYKDQLKTRIVLVAMETWATDNKFAISENPLITLREFMKYRRDFIKEKSDAVHLFSGSQFESSRSGAAYIGGICSLLKGGGVNEFGKTDLMAVTLAQSLAHNIGIISDKRKLASGECKCEDTWSGCIMGDTGYYLPKKFTQCNIEEYHDFLNSGGGACLFNKPSKLLDPPECGNGFIETGEECDCGTPAECVLEGAECCKKCTLTQDSQCSDGLCCKKCKFQPMGTVCREAVNDCDIRETCSGNSSQCAPNIHKMDGYSCDGVQGICFGGRCKTRDRQCKYIWGQKVTASDKYCYEKLNIEGTEKGNCGKDKDTWIQCNKRDVLCGYLLCTNIGNIPRLGELDGEITSTLVVQQGRTLNCSGGHVKLEEDVDLGYVEDGTPCGPQMMCLEHRCLPVASFNFSTCLSSKEGTICSGNGVCSNELKCVCNRHWIGSDCNTYFPHNDDAKTGITLSG

Variants of: B1
Assay: pull-down; anti-FLAG antibody agarose; proteins secreted from HEK293T cells; n = 4 independent experiments; read off a plot

Variant | percent of parent
chain 1 KKPAKPKCPAVCTCTKDNALCENARSIPRTVPPDVISLSFVRSGFTEISEGSFLFTPSLQLLLFTSNSFDVISDDAFIGLPHLEYLFIENNNIKSISRHTFRGLKSLIHLSLANNNLQTLPKDIFKGLDSLTNVDLRGNSFNCDCKLKWLVEWLGHTNATVEDIYCEGPPEYKKRKINSLSSKDFDCIITEFAKSQDLPYQSLSIDTFSYLNDEYVVIAQPFTGKCIFLEWDHVEKTFRNYDNITGTSTVVCKPIVIETQLYVIVAQLFGGSHIYKRDSFANKFIKIQDIEILKIRKPNDIETFKIENNWYFVVADSSKAGFTTIYKWNGNGFYSHQSLHAWYRDTDVEYLEIVRTPQTLRTPHLILSSSSQRPVIYQWNKATQLFTNQTDIPNMEDVAAVKHFSVKGDVYICLTRFIGDSKVMKWGGSSFQDIQRMPSRGSMVFQPLQINNYQYAILGSDYSFTQVYNWDAEKAKFVKFQELNVQAPRSFTHVSINKRNFLFASSFKGNTQIYKHVIVDLSA [chain 1 Y399A] | ~4 % of WT
chain 1 KKPAKPKCPAVCTCTKDNALCENARSIPRTVPPDVISLSFVRSGFTEISEGSFLFTPSLQLLLFTSNSFDVISDDAFIGLPHLEYLFIENNNIKSISRHTFRGLKSLIHLSLANNNLQTLPKDIFKGLDSLTNVDLRGNSFNCDCKLKWLVEWLGHTNATVEDIYCEGPPEYKKRKINSLSSKDFDCIITEFAKSQDLPYQSLSIDTFSYLNDEYVVIAQPATGKCIFLEWDHVEKTFRNYDNITGTSTVVCKPIVIETQLYVIVAQLFGGSHIYKRDSFANKFIKIQDIEILKIRKPNDIETFKIENNWYFVVADSSKAGFTTIYKWNGNGFYSHQSLHAWYRDTDVEYLEIVRTPQTLRTPHLILSSSSQRPVIYQWNKATQLFTNQTDIPNMEDVYAVKHFSVKGDVYICLTRFIGDSKVMKWGGSSFQDIQRMPSRGSMVFQPLQINNYQYAILGSDYSFTQVYNWDAEKAKFVKFQELNVQAPRSFTHVSINKRNFLFASSFKGNTQIYKHVIVDLSA [chain 1 F222A] | ~37 % of WT
chain 1 KKPAKPKCPAVCTCTKDNALCENARSIPRTVPPDVISLSFVRSGFTEISEGSFLFTPSLQLLLFTSNSFDVISDDAFIGLPHLEYLFIENNNIKSISRHTFRGLKSLIHLSLANNNLQTLPKDIFKGLDSLTNVDLRGNSFNCDCKLKWLVEWLGHTNATVEDIYCEGPPEYKKRKINSLSSKDFDCIITEFAKSQDLPYQSLSIDTFSYLNDEYVVIAQPFTGKCIFLEWDHVEKTFRNYDNITGTSTVVCKPIVIETQLYVIVAQLFGGSHIYKRDSFANKFIKIQDIEILKIRKPNDIETFKIENNWYFVVADSSKAGFTTIYKWNGNGFYSHQSLHAWYRDTDVEYLEIVRTPQTLRTPHLILSSSSQRPVIYQWNKATQLFTNQTDIPNMEDVYAVKHFSVKGDVYICLTRFIGDSKVMKWGGSSFQDIQRMPSRGSAVFQPLQINNYQYAILGSDYSFTQVYNWDAEKAKFVKFQELNVQAPRSFTHVSINKRNFLFASSFKGNTQIYKHVIVDLSA [chain 1 M443A] | ~9 % of WT
chain 1 KKPAKPKCPAVCTCTKDNALCENARSIPRTVPPDVISLSFVRSGFTEISEGSFLFTPSLQLLLFTSNSFDVISDDAFIGLPHLEYLFIENNNIKSISRHTFRGLKSLIHLSLANNNLQTLPKDIFKGLDSLTNVDLRGNSFNCDCKLKWLVEWLGHTNATVEDIYCEGPPEYKKRKINSLSSKDFDCIITEFAKSQDLPYQSLSIDTFSYLNDEYVVIAQPFTGKCIFLEWDHVEKTFRNYDNITGTSTVVCKPIVIETQLYVIVAQLFGGSHIYKRDSFANKFIKIQDIEILKIAKPNDIETFKIENNWYFVVADSSKAGFTTIYKWNGNGFYSHQSLHAWYRDTDVEYLEIVRTPQTLRTPHLILSSSSQRPVIYQWNKATQLFTNQTDIPNMEDVYAVKHFSVKGDVYICLTRFIGDSKVMKWGGSSFQDIQRMPSRGSMVFQPLQINNYQYAILGSDYSFTQVYNWDAEKAKFVKFQELNVQAPRSFTHVSINKRNFLFASSFKGNTQIYKHVIVDLSA [chain 1 R296A] | ~85 % of WT
chain 1 KKPAKPKCPAVCTCTKDNALCENARSIPRTVPPDVISLSFVRSGFTEISEGSFLFTPSLQLLLFTSNSFDVISDDAFIGLPHLEYLFIENNNIKSISRHTFRGLKSLIHLSLANNNLQTLPKDIFKGLDSLTNVDLRGNSFNCDCKLKWLVEWLGHTNATVEDIYCEGPPEYKKRKINSLSSKDFDCIITEFAKSQDLPYQSLSIDTFSYLNDEYVVIAQPFTGKCIFLEWDHVEKTFRNYDNITGTSTVVCKPIVIETQLYVIVAQLFGGSHIYKRDSFANKFIKIQDIEILKIRKPNDIETFKIENNWYFVVADSSKAGFTTIYKWNGNGFYSHQSLHAWYADTDVEYLEIVRTPQTLRTPHLILSSSSQRPVIYQWNKATQLFTNQTDIPNMEDVYAVKHFSVKGDVYICLTRFIGDSKVMKWGGSSFQDIQRMPSRGSMVFQPLQINNYQYAILGSDYSFTQVYNWDAEKAKFVKFQELNVQAPRSFTHVSINKRNFLFASSFKGNTQIYKHVIVDLSA [chain 1 R344A] | ~33 % of WT
